In patent US9731032B2, “Aptamers for tumor initiating cells” (THE CLEVELAND CLINIC FOUNDATION, priority 2013, dated 2017):

B1: CCGTAGCTACGACGGAGGAAACTATGTTA (nucleic acid)
DNA: ATCCACGAGTGACGCAGCATGTTTAGGAAACCGTAGCTACGACGGAGGAAACTATGTTAAACATCCCCATGGACACGGTGGCTTAGT
modifications: DNA, backbone and methylation of C not given here
notes: TIC-specific DNA aptamer
B2: AAAGCTCCTTGGAATAGTCTAATACCGGA (nucleic acid)
DNA: ATCCACGAGTGACGCAGCACGAGCAACACAAAAGCTCCTTGGAATAGTCTAATACCGGAGCGAGAAAGCTGGACACGGTGGCTTAGT
modifications: listed as DNA, chemistry not given here
notes: TIC-specific DNA aptamer
B3: AGAACTGGCCTTACTACGAAAAGTCCTTG (nucleic acid)
DNA: ATCCACGAGTGACGCAGCACCGAGAGGAGAGAACTGGCCTTACTACGAAAAGTCCTTGGTTGCCAGGGGTGGACACGGTGGCTTAGT
modifications: listed as DNA, chemistry not given here
notes: TIC-specific DNA aptamer
B4: TGTGTATAAAGGGGCGGTGAAAAGCGAAT (nucleic acid)
DNA: ATCCACGAGTGACGCAGCACAGTGATCAGTTGTGTATAAAGGGGCGGTGAAAAGCGAATTCCAGTCGACTGGACACGGTGGCTTAGT
modifications: listed as DNA, chemistry not given here
notes: TIC-specific DNA aptamer
B5: GACGAGCTAAGAACCTTTAGGAGTGGAAA (nucleic acid)
DNA: ATCCACGAGTGACGCAGCACAGAGTGGAAGACGAGCTAAGAACCTTTAGGAGTGGAAAAGATAGCTCATGGACACGGTGGCTTAGT
modifications: DNA, backbone and methylation of C not given here
notes: TIC-specific DNA aptamer

What was measured:
[1] = system: GS5, a well-characterized TIC line; assay: GS5 proliferation; assay type: cell-based
GS5 = GS5 sphere formation (TIC self-renewal); assay type: cell-based
Description: (§2) We further evaluated whether this drug delivery system can be used to treat TIC-derived tumors. […] We successfully encapsulated DI into our brain-penetration nanoparticles, which were administrated via a single infusion into rat brains bearing GS5-derived tumors.

CD133+ cell population = assay: CD133+ cell population; assay type: cell-based
Description: as §2

GS5-derived tumors = assay: Survival of rats bearing GS5-derived brain tumors after a single infusion; assay type: in vivo; conditions: single infusion into rat brains bearing GS5-derived tumors
Description: as §2

[2] = system: GBM cells from GBM1 (08-387), GBM2 (4121), GBM3 (08-322), GBM4 (3691) xenografts; assay: Neurosphere formation assay of aptamer-high vs aptamer-low GBM cells; assay type: cell-based, human; conditions: four GBMs tested
Procedure: After overnight recovery of GBM cells from tissue dissociation, each Cy5-labeled aptamer was incubated with each specimen for 30 min. After washing thrice, labeled GBM cells were subjected to cell sorting. For the sphere formation assay, 10 cells of either aptamer^high and aptamer^low GBM cells sorted by FACS were directly plated into each well of a six well plate containing 200 μL of TIC culturing medium similar to our prior descriptions. After 10 to 14 days, the number of tumorspheres in each well was counted and plotted. For the cell proliferation assay, aptamer^high and aptamer^low GBM cells were sorted into each 15 mL tube, and equal numbers of cells were plated into 96 wells. Differences in cell growth were measured using Cell-Titer Glow (Promega™) according to the manufacturer's instructions and prior reports. Hjelmeland et al., PLoS biology, 8:e1000319 (2010); Li et al., Cancer cell, 15:501-13 (2009).

[3] = system: GBM1 (08-387) cells injected intracranially; assay: In vivo tumorigenic potential of aptamer-high vs aptamer-low GBM cells; design: species or system mice; conditions: for tumor incidence, aptamer-high cells / tumor incidence, aptamer-low cells: 300 cells implanted; for survival of mice injected with aptamer-high cells: 3000 or 300 cells intracranially, vs aptamer-low cells
Procedure: To determine tumorigenic potential, 300 or 3000 viable aptamer^high or aptamer^low GBM cells were intracranially injected into athymic/nude immunocompromised mice as we have previously described. Animals were maintained until the development of neurological signs including lethargy, seizure, ataxia, or paralysis or for a maximum of 60 days, when they were sacrificed. All animal procedures were performed in accordance with a Cleveland Clinic IACUC approved protocol.

[4] = system: ReNCell CX immortalized human neural progenitors or primary human fetal neural progenitors; assay: Flow cytometry aptamer binding to non-neoplastic neural progenitors
Procedure: (§1) Each FITC-labeled aptamer candidate was incubated with TICs or non-TICs in binding buffer on ice for 30 min. The cells were washed three times with binding buffer, and the pellets with the bound sequences were resuspended in 200 μL binding buffer. The fluorescence intensity was determined with a LSR II (BD Immunocytometry Systems) by counting 10,000 events. The FITC-labeled unselected single strand DNA library was used as a negative control. To determine the specificity of the selected aptamers, aptamer binding to additional GBM cells (08-322, 4121, U87MG) or neural progenitors (RenCell c-myc immortalized human neural progenitors, Millipore; human fetal neural progenitors, Lonza) was determined. For determination of aptamer binding to differentiated TICs, TICs were plated on Geltrex-coated plates in the presence of 10% serum and harvested after five days for FACS analysis.

TICs = assay: Flow cytometry to monitor aptamer binding to TICs; design: species or system human; conditions: GBM1, GBM2, GBM3
Procedure: as §1
To further evaluate the specificity of TIC-enriched aptamers, the fold change in fluorescence was calculated. Fluorescence shift was calculated using the equation (Faptamer−Fcell)/(Flibrary−Fcell), where Faptamer, Flibrary and Fcell refers to the fluorescence value of the aptamer, library, and cell itself. Using this calculation, specificity of aptamers A2-A6 for TICs in comparison to non-TICs was shown for all three GBMs tested (FIG. 2A-C).

Molecule | neurosphere formation capacity of aptamer-enriched cells [2] | tumor incidence, aptamer-high cells [3] | tumor incidence, aptamer-low cells [3] | survival of mice injected with aptamer-high cells [3] | further results
CCN1/C(=C/C=C/C=C/c2sc3ccccc3[n+]2CC)Sc2ccccc21 [DI, dithiazanine iodide] | – | – | – | – | IC50 [1]: 79 nM; inhibition of GS5 sphere formation (GS5): 94%; decrease of the CD133+ cell population (CD133+ cell population): 57%; median survival (GS5-derived tumors): 177 days
B1 | significantly segregated cells with neurosphere formation capacity in all four GBMs tested | – | – | – | –
B2 | significantly segregated cells with neurosphere formation capacity in all four GBMs tested | All mice | 3 of 4 | significantly reduced | –
B3 | significantly segregated cells with neurosphere formation capacity in all four GBMs tested | – | – | – | –
B4 | greater neurosphere formation capacity in three of four GBMs tested | All mice | 2 of 4 | significantly reduced | binding to nonneoplastic neural progenitors [4]: bound both sets of non-neoplastic brain cells
B5 | greater neurosphere formation capacity in three of four GBMs tested | – | – | – | fluorescence shift (Faptamer−Fcell)/(Flibrary−Fcell): specificity for TICs in comparison to non-TICs (TICs): greater binding to TICs in GBM1 and GBM2, but not GBM3
